From paper PMC12903456, “DoMYB75 coordinately regulates polysaccharide and anthocyanin biosynthesis in Dendrobium officinale” come the findings set out here.

B1: ProCSLA9 probe (dsDNA)
DNA 1: TAAGAAACTTTGATAACTATTAGATGACCAAATTAATTCAATCATACCGTAAATAATTC
DNA 2: GAATTATTTACGGTATGATTGAATTAATTTGGTCATCTAATAGTTATCAAAGTTTCTTA
B2: ProCSLA3 probe (dsDNA)
DNA 1: TCACATTTATCACGTTTGAGTTCGATACCAACTTTTTTTTTTTTTTTTTGAGC
DNA 2: GCTCAAAAAAAAAAAAAAAAAGTTGGTATCGAACTCAAACGTGATAAATGTGA
B3: ProCSLA12 probe (dsDNA)
DNA 1: CCCTAAAGGTTGGAGTTGGTCACTCAACCTAACCTTAAATAATGATTCATGTTGTATTC
DNA 2: GAATACAACATGAATCATTATTTAAGGTTAGGTTGAGTGACCAACTCCAACCTTTAGGG

In the data set the target is MBP-DoMYB75 (Dendrobium officinale, UniProt A0A2I0X1N0 1-290). Kind of data set: EMSA; competed by unlabeled probe; LightShift Chemiluminescent EMSA Kit (Thermo Fisher) per manufacturer; buffer, salt, pH and temperature not stated. The conditions noted are these: protein: recombinant; tags: MBP; label: biotin; blunt. (In EMSA bound probe runs differently from free probe, usually more slowly.)
Sequence of MBP-DoMYB75 (A0A2I0X1N0 entry or part of it): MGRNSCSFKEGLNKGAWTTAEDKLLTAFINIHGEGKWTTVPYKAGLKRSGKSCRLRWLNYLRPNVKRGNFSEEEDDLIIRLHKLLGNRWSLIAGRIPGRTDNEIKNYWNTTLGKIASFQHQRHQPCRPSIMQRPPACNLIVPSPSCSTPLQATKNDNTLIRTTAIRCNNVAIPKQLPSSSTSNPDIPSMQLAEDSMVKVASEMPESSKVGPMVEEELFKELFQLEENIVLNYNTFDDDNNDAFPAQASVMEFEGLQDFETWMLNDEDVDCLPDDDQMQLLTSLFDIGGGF
As for B1, the binding result is reported as “binds”.

Turning to B2, the binding result is “binds”. Regarding B3, the binding result is “binds”.
